Measured values as given in patent publication US20250388666A1 (BRIGHAM AND WOMEN S HOSPITAL, published 2025).
Numbering of substitutions follows the chain as printed. Names and notes keep the numbering of the source. Values joined by “and” are separate entries in the source; they are usually repeats but may differ in a detail not shown here. Equal entries are not always repeated.

T1: CEACAM1 (Sino Biological) (human, UniProt P13688 35-428, limits assumed)
T1 construct: may be the same as CEACAM1-HIS; also called hCEACAM1; biotinylated soluble CEACAM1
T1 sequence: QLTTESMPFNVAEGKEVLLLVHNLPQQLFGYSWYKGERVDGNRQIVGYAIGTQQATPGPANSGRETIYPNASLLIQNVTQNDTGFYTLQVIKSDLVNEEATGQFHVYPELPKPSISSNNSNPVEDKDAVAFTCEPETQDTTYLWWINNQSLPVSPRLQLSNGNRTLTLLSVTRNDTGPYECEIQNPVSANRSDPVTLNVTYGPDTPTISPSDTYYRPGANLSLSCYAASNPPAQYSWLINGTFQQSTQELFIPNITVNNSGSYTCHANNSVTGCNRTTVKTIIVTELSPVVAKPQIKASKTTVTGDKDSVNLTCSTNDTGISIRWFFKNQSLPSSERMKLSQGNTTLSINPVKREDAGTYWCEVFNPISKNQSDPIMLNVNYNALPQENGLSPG

B1: He13/L6 (antibody, IgG4, V domains shown)
VH: EVQLLESGGGLVQPGGSLRLSCAASGFSFSDYYLYWVRQAPGKGLEWVATISVGGGQTSYADSVKGRFTISRDNSKNTLYLQMNSLRAEDTAMYYCTRGLYYGPSWLAYWGQGTLVTVSS
VL: DIVMTQSPDSLAVSLGERATINCKSSQSLLNSANQKNYLAWYQQKPGQPPKLLIYFASTRESGVPDRFSGSGSGTDFTLTISSLQAEDVAVYYCQSHYPFSFTFGGGTKVEIK
notes: IgG4 S241P, kappa
B2: He14/L2 (antibody, IgG4, V domains shown)
VH: B1 VH with L107V
VL: B1 VL with S101P, F102Y
notes: IgG4 S241P, kappa
B3: He17/Parent VL (antibody, IgG4, V domains shown)
VH: B1 VH with G99A, L100R, Y101T, S105A, L107F
VL: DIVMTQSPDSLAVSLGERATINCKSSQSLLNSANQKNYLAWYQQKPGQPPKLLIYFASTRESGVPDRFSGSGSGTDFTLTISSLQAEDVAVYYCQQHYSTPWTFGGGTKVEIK
notes: IgG4 S241P, kappa
B4: He13/L16 (antibody, IgG4, V domains shown)
VH: B1 VH
VL: B1 VL with F100Y, S101P
notes: IgG4 S241P, kappa
B5: He13/L19 (antibody, IgG4, V domains shown)
VH: B1 VH
VL: B1 VL with Y98I, P99Y, F100P, S101N
notes: IgG4 S241P, kappa
B6: He17/L17 (antibody, IgG4, V domains shown)
VH: B1 VH with G99A, L100R, Y101T, S105A, L107F
VL: B1 VL with F100Y, S101P, F102Y
notes: IgG4 S241P, kappa
B7: Parent VH/L3 (antibody, IgG4, V domains shown)
VH: B1 VH with S105A, L107F
VL: B1 VL with Y98F, S101P
notes: IgG4 S241P, kappa
B8: He17/L5 (antibody, IgG4, V domains shown)
VH: B1 VH with G99A, L100R, Y101T, S105A, L107F
VL: B1 VL with S101A
notes: IgG4 S241P, kappa
B9: He14/L19 (antibody, IgG4, V domains shown)
VH: B1 VH with L107V
VL: B1 VL with Y98I, P99Y, F100P, S101N
notes: IgG4 S241P, kappa
B10: He13/L20 (antibody, IgG4, V domains shown)
VH: B1 VH
VL: B1 VL with Y98F, F100Y, S101P, F102L
notes: IgG4 S241P, kappa
B11: He17/L6 (antibody, IgG4, V domains shown)
VH: B1 VH with G99A, L100R, Y101T, S105A, L107F
VL: B1 VL
notes: IgG4 S241P, kappa
B12: He14/L6 (antibody, IgG4, V domains shown)
VH: B1 VH with L107V
VL: B1 VL
notes: IgG4 S241P, kappa
B13: Parent VH/L2 (antibody, IgG4, V domains shown)
VH: B1 VH with S105A, L107F
VL: B1 VL with S101P, F102Y
notes: IgG4 S241P, kappa
B14: He17/L4 #1 (antibody, IgG4, V domains shown)
VH: B1 VH with G99A, L100R, Y101T, S105A, L107F
VL: B1 VL with Y98F, F100Y, S101Y, F102Y
notes: IgG4 S241P, kappa
B15: He17/L18 (antibody, IgG4, V domains shown)
VH: B1 VH with G99A, L100R, Y101T, S105A, L107F
VL: B1 VL with Y98F, F100Y, S101P
notes: IgG4 S241P, kappa
B16: He13/Parent VL (antibody, IgG4, V domains shown)
VH: B1 VH
VL: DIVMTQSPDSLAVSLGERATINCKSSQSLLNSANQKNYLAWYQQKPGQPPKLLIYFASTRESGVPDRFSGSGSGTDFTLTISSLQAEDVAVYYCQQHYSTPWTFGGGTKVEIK
notes: IgG4 S241P, kappa
B17: He17/L20 (antibody, IgG4, V domains shown)
VH: B1 VH with G99A, L100R, Y101T, S105A, L107F
VL: B1 VL with Y98F, F100Y, S101P, F102L
notes: IgG4 S241P, kappa
B18: He17/L19 (antibody, IgG4, V domains shown)
VH: B1 VH with G99A, L100R, Y101T, S105A, L107F
VL: B1 VL with Y98I, P99Y, F100P, S101N
notes: IgG4 S241P, kappa
B19: He14/L17 (antibody, IgG4, V domains shown)
VH: B1 VH with L107V
VL: B1 VL with F100Y, S101P, F102Y
notes: IgG4 S241P, kappa
B20: Parent VH/L4 #1 (antibody, IgG4, V domains shown)
VH: B1 VH with S105A, L107F
VL: B1 VL with Y98F, F100Y, S101Y, F102Y
notes: IgG4 S241P, kappa
B21: He13/L18 (antibody, IgG4, V domains shown)
VH: B1 VH
VL: B1 VL with Y98F, F100Y, S101P
notes: IgG4 S241P, kappa
B22: He14/L4 #1 (antibody, IgG4, V domains shown)
VH: B1 VH with L107V
VL: B1 VL with Y98F, F100Y, S101Y, F102Y
notes: IgG4 S241P, kappa
B23: He14/L16 (antibody, IgG4, V domains shown)
VH: B1 VH with L107V
VL: B1 VL with F100Y, S101P
notes: IgG4 S241P, kappa
B24: He14/L3 (antibody, IgG4, V domains shown)
VH: B1 VH with L107V
VL: B1 VL with Y98F, S101P
notes: IgG4 S241P, kappa
B25: He17/L4#2 (antibody, IgG4, V domains shown)
VH: B1 VH with G99A, L100R, Y101T, S105A, L107F
VL: B1 VL with F100Y, S101P, F102Y
notes: IgG4 S241P, kappa
B26: He14/L5 (antibody, IgG4, V domains shown)
VH: B1 VH with L107V
VL: B1 VL with S101A
notes: IgG4 S241P, kappa
B27: He17/L2 (antibody, IgG4, V domains shown)
VH: B1 VH with G99A, L100R, Y101T, S105A, L107F
VL: B1 VL with S101P, F102Y
notes: IgG4 S241P, kappa
B28: He14/L4#2 (antibody, IgG4, V domains shown)
VH: B1 VH with L107V
VL: B1 VL with F100Y, S101P, F102Y
notes: IgG4 S241P, kappa
B29: He13/L17 (antibody, IgG4, V domains shown)
VH: B1 VH
VL: B1 VL with F100Y, S101P, F102Y
notes: IgG4 S241P, kappa
B30: He14/L18 (antibody, IgG4, V domains shown)
VH: B1 VH with L107V
VL: B1 VL with Y98F, F100Y, S101P
notes: IgG4 S241P, kappa
B31: He17/L3 (antibody, IgG4, V domains shown)
VH: B1 VH with G99A, L100R, Y101T, S105A, L107F
VL: B1 VL with Y98F, S101P
notes: IgG4 S241P, kappa
B32: He14/Parent VL (antibody, IgG4, V domains shown)
VH: B1 VH with L107V
VL: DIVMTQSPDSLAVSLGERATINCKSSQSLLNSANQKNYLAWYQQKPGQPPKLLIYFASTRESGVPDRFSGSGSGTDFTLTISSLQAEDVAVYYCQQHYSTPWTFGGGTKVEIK
notes: IgG4 S241P, kappa
B33: He14/L20 (antibody, IgG4, V domains shown)
VH: B1 VH with L107V
VL: B1 VL with Y98F, F100Y, S101P, F102L
notes: IgG4 S241P, kappa

Molecular target: T1, CEACAM1 (Sino Biological)
Assay: SPR single-cycle
Method: To assess the binding of the humanized affinity matured IgGs, single cycle kinetics analysis was performed on crude supernatants using a Biacore T200 running Biacore T200 Control Software V2.0.1 and Biacore T200 Evaluation Software V3.0 (Uppsala, Sweden). Antibodies were diluted in HBS-P+ (GE Healthcare) to a final concentration of […]. At the start of each cycle, antibodies were loaded onto Fc2, Fc3 and Fc4 of the Protein A chip (GE Healthcare). IgGs were captured at a flow rate of 10 μl/min to give an immobilization level (RL) of ˜100 RU (a level calculated to obtain an Rmax of ˜50-150 RU once the analyte is bound). The surface was then allowed to stabilize. Single cycle kinetics data was obtained with CEACAM1 as the analyte at a flow rate of […] to minimize any potential mass transfer effects. Multiple repeats with the parent (VH2 N56Q/Vκ4 S27(f)A) antibody were performed to check the stability of the surface and analyte over the kinetic cycles. The signal from the reference channel Fc1 (no antibody) was subtracted from that of Fc2, Fc3 and Fc4 to correct for differences in non-specific binding to the reference surface. A three point, two-fold dilution range from 25 nM to 100 nM CEACAM 1 without regeneration between each concentration was used. The signal from each antibody blank run (no CEACAM1) was subtracted to correct for differences in surface stability. The association phase for the three injections of increasing concentrations of CEACAM1 was monitored for 200 seconds each time and a single dissociation phase was measured for 300 seconds following the last injection of CEACAM1. Regeneration of the Protein A surface was conducted using two injections of 10 mM glycine-HCL pH 1.5 followed by a stabilization period of 240 seconds.

Row | Binder | Kd | fold better than Parent (KD)
1 | B1 | 105 nM | 1.51 fold
2 | B2 | 102 nM | 1.56 fold
3 | B3 | 128 nM | 1.24 fold
4 | B4 | 105 nM | 1.51 fold
5 | B5 | 129 nM | 1.23 fold
6 | B6 | 104 nM | 1.53 fold
7 | B7 | 63 nM | 2.53 fold
8 | B8 | 81 nM | 1.97 fold
9 | B9 | 87 nM | 1.83 fold
10 | B10 | 109 nM | 1.46 fold
11 | B11 | 79 nM | 2.01 fold
12 | B12 | 111 nM | 1.43 fold
13 | B13 | 70 nM | 2.26 fold
14 | B14 | 165 nM | 0.96 fold
15 | B15 | 98 nM | 1.62 fold
16 | B16 | 91 nM | 1.74 fold
17 | B17 | 99 nM | 1.61 fold

Row | Binder | Kd | fold better than Parent (KD)
18 | B18 | 135 nM | 1.18 fold
19 | B19 | 97 nM | 1.64 fold
20 | B20 | 103 nM | 1.54 fold
21 | B21 | 103 nM | 1.54 fold
22 | B22 | 93 nM | 1.7 fold
23 | B23 | 93 nM | 1.7 fold
24 | B24 | 107 nM | 1.49 fold
25 | B25 | 258 nM | 2.14 fold
26 | B26 | 102 nM | 1.56 fold
27 | B27 | 82 nM | 1.95 fold
28 | B28 | 396 nM | 1.39 fold
29 | B29 | 372 nM and 159 nM | –
30 | B30 | 91 nM | 1.75 fold
31 | B31 | 95 nM | 1.68 fold
32 | B32 | 88 nM | 1.8 fold
33 | B33 | 114 nM | 1.39 fold
